Reference: the supplement of paper PMC9170038

Test system: MS2 coat protein
Assay: apparent KD of MS2 coat protein; designed switch direction (-1 OFF switch, 1 ON switch): -1; higher = weaker reporter binding
Procedure, shortened: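 Designed RNA switches were transcribed on Illumina chips by stalled E. coli RNA polymerase and titrated with SNAP-549-labelled MS2 coat protein from 0.7 or 1.5 nM, doubling to 3 µM. Step length ran from 0.8–1.5 h at the lowest concentration to 10–20 min at the highest. The apparent KD is the median over clusters for each design, from curve-fitted normalised cluster fluorescence.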

[1] = Eterna round: R95, input ligand: FMN 200 uM
[2] = Eterna round: R95, input ligand: microRNA oligo, concentration not stated
[3] = Eterna round: R95, input ligand: none
[4] = input ligand: microRNA oligo, concentration not stated

Sequence | apparent KD of MS2 coat protein [1] [nM] | apparent KD of MS2 coat protein [2] [nM] | apparent KD of MS2 coat protein [3] [nM] | apparent KD of MS2 coat protein (input ligand: FMN 200 uM) [nM] | apparent KD of MS2 coat protein (input ligand: none) [nM] | apparent KD of MS2 coat protein [4] [nM]
GUGAUGUAGCACAAUAAGUUUUUUGCCGUCUUAGGUCCAACAUGAGGAUCACCCAUGUACGUCUACAUGCACUUUAA [Veveuslabe] (puzzle: Sensor v3, turn-off variant 2) | 66.4 | 197 | 81.2 | – | – | –
CGUCUGUAAGGAUAUGGUAGCGUUUACAUGAGGAUCACCCAUGUUACAUGGGACUAGAGACUAGAAGGUACGAACG [EX5 #51] (Eterna round: R97, puzzle: Exclusion 5) | – | – | – | 589 | 2520 | –
GGUCUGCGAGGAUAUACAUGAGGAUCACCCAUGUGAGAGAUACUAGUGAGGUCGAUUGGUAGAAGGCGCGGACG [JL-ex3-2.03 salish99 mod] (puzzle: Exclusion 3) | 13.1 | 124 | 115 | – | – | –
CUGUACUGAGGAUAUACAUGAGGAUCACCCAUGUGUACCAGCUAGGAAACUAGCAAAAGUAGAAGGCAGUACAG [Mat - Exclusion 3 - Eli Mod - D62] (Eterna round: R97, puzzle: Exclusion 3) | – | – | – | 27.6 | 13.3 | –
AAUACAAGCAAGAUCCUAAACAUGAGGAUCACCCAUGUGCUCGUCUUGUAAAGUACUAUCACGAAAGUGAUAGUACA [Sensor 3, v1 - 62] (puzzle: Sensor v3, turn-off variant 1) | 29.4 | 103 | 32.7 | – | – | –
UAUUAGCAAGCGAGAUCCCACAUGAGGAUCACCCAUGUGCUCGUCUUAUAAAAGACUGUGACGAUAGUCACGGUCAC [Mat - Sensor, turn-off var - Eli Mod - D22] (Eterna round: R97, puzzle: Sensor, turn-off variant 1) | – | – | – | 14.2 | 13.1 | –
CCGUCGGUAGGAUAUGCUAUGCAUGUCGGCGCUAUUUGAGGACAUGAGGAUCACCCAUGUAGAAGGGCCGAGGU [Eternabot (L1) Solution 55] (Eterna round: R97, puzzle: Exclusion 2) | – | – | – | 22.7 | 15.7 | –
AAGUACCGUCACGAUAGUGAUGGUACAACAAGCAAAUGUACAUGAGGAUCACCCAUGUCCUCUUUUGCUCGUCUUAU [Sensor 3 - 94] (puzzle: Sensor v3, turn-off variant 2) | 53.3 | 28.9 | 53.8 | – | – | –
GGAUUUACUGAGGAUAUUACAUCACCCGAUUGAUAAGAAGGCAGAACAUGAGGAUCACCCAUGUGGGUAGUCAA [Polaris3] (Eterna round: R97, puzzle: Exclusion 6) | – | – | – | 70.1 | 111 | –
GAGUGACAUGAGGAUCACCCAUGUGAGGAUAUCGGACGGACCAAAUUAACAACACCCGCGAGAAGGCACAUCGG [Exclusion 1 V21] (puzzle: Exclusion 1) | – | 110 | – | – | – | –
CUUUCGUGAGGAUAUGUGGCUUCGAUCGUGCGAUCGAGGCUACAGAAGGCACAUGAGGAUCACCCAUGUUCCUC [salish99_ex4_r4_221] (Eterna round: R97, puzzle: Exclusion 4) | – | – | – | 427 | 45.6 | –
GCGUACUGAGGAUAUACAUGAGGAUCACCCAUGUAACACAGCAUAUGUGAAGUUUUUUGUAGAAGGCAGUAUGC [JR_Ex3_Sub056] (Eterna round: R97, puzzle: Exclusion 3) | – | – | – | 180 | 28.7 | –
AUUGUAUGGAAAGGAUAUAGAAUAUUAUUUUAACAUGAGGAUCACCCAUGUAACCUUAUGUGUAGCUAGAAGGUUCGUUUGUUA [Title] (Eterna round: R96, puzzle: Exclusion NG 2) | – | – | – | – | – | 69.2
GGAAAGCAAGGAUAUACAAGUAAACGAUGGAAAGUAGAGAGACAUGAGGAUCACCCAUGUAGAAGGUGCGAGAG [JR_Exclu2_Sub036] (puzzle: Exclusion 2) | 24.1 | 30.1 | 22.2 | – | – | –
AGAGUGCUGCGAGGAUAUACAUGAGGAUCACCCAUGUAAUCGUGUGAGGCAAAGCCUCACACGAUGUAGAAGGCGCAGUACUCA [Mat - Exclusion NG 2 - Mod of JL - D24] (Eterna round: R96, puzzle: Exclusion NG 2) | – | – | – | 13.1 | 16.7 | 12.8
GGUGCGUAUGUGAGGAUAUGCUGGUCCUUGGGUCAGCAGAAGGCACAUGAGGAUCACCCAUGUGGUGUCGUACC [salish99_Bmod_Ex4_026] (puzzle: Brourd's mod of Exclusion 4) | 20.3 | 345 | 344 | – | – | –
UAUAUUGGAGGAUAUCUCUCAGUGAACAUGAGGAUCACCCAUGUUGGUGAACGACGGCACAGAGAAGGUCAACGCA [Eternabot (L2) Solution 61] (Eterna round: R97, puzzle: Exclusion 5) | – | – | – | 314 | 499 | –

Sequence | apparent KD of MS2 coat protein [1] [nM] | apparent KD of MS2 coat protein [2] [nM] | apparent KD of MS2 coat protein [3] [nM] | apparent KD of MS2 coat protein (input ligand: FMN 200 uM) [nM] | apparent KD of MS2 coat protein (input ligand: none) [nM] | apparent KD of MS2 coat protein [4] [nM]
GAAGGUGAGCAGGAUAUCCGCGCACGAAUAUAAGGAGAAGGGCUUACAUGAGGAUCACCCAUGUAAGGUGGUAG [Rexequar] (puzzle: Exclusion 6) | 15.8 | 11.9 | 11.5 | – | – | –
GCAGCUAGUUCAGGAUAUCAGCACGUUUAGUGCUGAGAAGGGAACAUGAGGAUCACCCAUGUGAUCAAUGCUGCAAUUUUAAUU [ENG1/12-A2] (Eterna round: R96, puzzle: Exclusion NG 1) | – | – | – | 1470 | 717 | 776
UUAUACGUUGAGGAUAUGCGACUUAGUAUAGUUGUAGAAGGCGAUACAUGAGGAUCACCCAUGUUUAUGGGCAU [LRO-Ex6-09] (puzzle: Exclusion 6) | – | 227 | – | – | – | –
AAGAAACAUGAGGAUCACCCAUGUGAGGAUAUGAUUAAGAAAAGAAAAGAAAGAAGAAUCAGAAGGCACAAAGG [salish99-ex1_r3_042] (puzzle: Exclusion 1) | 258 | 98.7 | 108 | – | – | –
GGUCAGACGGUAGGAUAUCCAUAUCGAGUGACCCUUUCAUAACAUGAGGAUCACCCAUGUCGGUGGGAGAAGGGCUGUACGGCG [salish99_ExNG02_R04_002] (Eterna round: R96, puzzle: Exclusion NG 2) | – | – | – | 45.8 | 35.6 | 22.6
CAGUACUGAGGAUAUACAUGAGGAUCACCCAUGUGUCCUAGCUAGGAAACUAGCAUUAGUAGAAGGCAGUACUG [Fiskers Ex 3 828 mod 6] (Eterna round: R96, puzzle: Exclusion 3) | – | – | – | 225 | 19.5 | 16.9
GGCGACCUAGGAUAUACAUGAGGAUCACCCAUGUUUAUCUAUUAGAUGAAGACGGGUUGUAGAAGGAGGAUAUU [JL Geriin mod] (puzzle: Exclusion 3) | – | 14.6 | – | – | – | –
AUAAUUUAAGUGAGGAUAUACCUAUGGAAACAUAGGUAGAAGGCACAUGAGGAUCACCCAUGUUCCUAUACAUA [Fiskers BMX 4 - 3] (puzzle: Brourd's mod of Exclusion 4) | 22.8 | 12 | 13.1 | – | – | –
GGUAUACAUGAGGAUCACCCAUGUCAGGAUAUGGAAACAUAUGCCGAAAGGCAUAUGGCCAGAAGGGACAAUAG [AK-MS2ROC-r4-exclusion1-5.1] (Eterna round: R97, puzzle: Exclusion 1) | – | – | – | 117 | 77.5 | –
UAACUACAUGAGGAUCACCCAUGUCAGGAUAUGCCGUUAAAUUAACAUCAACAUACGGGUAGAAGGGACAACGU [1st #3] (Eterna round: R97, puzzle: Exclusion 1) | – | – | – | 31.5 | 29.8 | –
GCCGGUCAUGUAGGAUAUGGCCGGCGGUGCCGGCCAGAAGGACAUGAGGAUCACCCAUGUGCCGGCCUUUGGCCGGCACCCGGC (Eterna round: R96, puzzle: Exclusion NG 1) | – | – | – | 10.3 | 17.2 | 8.76
GCGCAAAGCUAGGAUAUCCAGGGAUCUUCCCGCGGAGAAGGAGCCACAUGAGGAUCACCCAUGUGGUGAUCCUG [eternacac ex6r4 sub7] (Eterna round: R97, puzzle: Exclusion 6) | – | – | – | 14.9 | 15.4 | –
GACUGCAGAGGAUAUACAUGAGGAUCACCCAUGUGAGAUGCCUGACAGGUGUUGCUGAGUAGAAGGCUGCACUG [Onorveer] (puzzle: Exclusion 3) | – | 13.2 | – | – | – | –
AAUAACAUGUUGAUCAAAGACAUGAGGAUCACCCAUGUCAGCUUUUUGUUCGUAGAUUAACACUAAUAAUAAUAAUA [Stov1new/2-C] (Eterna round: R97, puzzle: Sensor, turn-off variant 1) | – | – | – | 16.5 | 16.5 | –
CGUAGACAUGAGGAUCACCCAUGUGAGGAUAUGCUUUUUUAUUAGAAAUGGUGGAGGAGCAGAAGGCACGUGCG [-21.6, -21.5 kcal, 28% A] (Eterna round: R97, puzzle: Exclusion 1) | – | – | – | 160 | 59.7 | –
AUCGUGCAGCUUUGCUGUACGAGUACAUGAGGAUCACCCAUGUAGGAUAUGGUACGCUUUGCGUGCUAGAAGGAUAUGCGUUUG [EX ENG3 1.45] (Eterna round: R96, puzzle: Exclusion NG 3) | – | – | – | 46.7 | 41.3 | 40
AAAUCCGCUGAGGAUAUUAUGACUGAGAGGUCAUGAGAAGGCGGUACAUGAGGAUCACCCAUGUCUAUGGGCAA [Ex-6 Malc#27] (puzzle: Exclusion 6) | 377 | 292 | 553 | – | – | –
